18 sequences from the supplement of paper PMC12764529 can be followed below.

A short description of series [1]: folding stability dG unfold from trypsin proteolysis; higher = more stable. Summed up:
(§1)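 Unfolding free energy was derived, per protease or combined, against a sequence-predicted unfolded-state K50 and a shared folded-state K50, starting from K50 inferred by Bayesian fitting of sequencing counts. Digestion with trypsin and chymotrypsin was carried out on designed mini-proteins under 80 residues without cysteine in a PA-tagged cDNA display construct. Only designs with AlphaFold2 dimer inter-PAE above 15 were kept.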

A short description of series [2]: folding stability dG unfold (combined trypsin and chymotrypsin); higher = more stable. Summed up: as §1
Series [3] can be described thus: folding stability dG unfold from chymotrypsin proteolysis; higher = more stable. The gist of the method: as §1

± gives the half width of the 95% confidence interval.

Regarding “SAGGSAGGSAGKVKLVEENGKLKLVVVDEKTKKVTVIEVPLENLDEILKLLPPGAKVYLLSAGGSAGGSAGG [r11_1006_TrROS_Hall]”, the “folding stability dG unfold” value in series [1] turned out to be 1.05 ± 0.053 kcal/mol; in series [2], 2.12 ± 0.17 kcal/mol; in series [3], 2.52 ± 0.049 kcal/mol.

Regarding “SAGGSAGGSAGKYAIVEVNGKPVLVEFEPLPDDKVKVKIVFPDGSKVEIELKANEPIYVGSAGGSAGGSAGG [r11_525_TrMRF]”, the “folding stability dG unfold” value in series [1] stood at 1.75 ± 0.095 kcal/mol; in series [2], 1.83 ± 0.13 kcal/mol; in series [3], 1.72 ± 0.076 kcal/mol.

Consider “SAGGSAGGSAGLDPDDPNYKIIPMTMEIKVEEYRMDPDGKMERQEQEHPIPILIIVPPGDSAGGSAGGSAGG [r17_523_TrROS]”, for which the “folding stability dG unfold” value in series [1] is 0.933 ± 0.074 kcal/mol; in series [2] it was 0.365 ± 0.22 kcal/mol; in series [3], -0.37 ± 0.28 kcal/mol.

As to “SAGGSAGGSAGLEVPEGYEVKILDVNPETLPNGERVVSMTVLIIDPDGNPRKVEFRFYAPSAGGSAGGSAGG [r11_570_TrMRF]”, the “folding stability dG unfold” value in series [1] was 2.47 ± 0.17 kcal/mol; in series [2], 2.27 ± 0.084 kcal/mol; in series [3] it was 2.1 ± 0.063 kcal/mol.

Consider “SAGGSAGGSAGLFPGPENIPKVSITPFEVENPLDDYTVTLYRVDFPDLGLSLPAALVSKRSAGGSAGGSAGG [r17_31_TrMRF]”, for which the “folding stability dG unfold” value is 0.698 ± 0.15 kcal/mol in series [1], 1.36 ± 0.16 kcal/mol in series [2] and 1.6 ± 0.07 kcal/mol in series [3].

With “SAGGSAGGSAGLKPGDEVLVISIEVETEIKLEEKDGKLTLETETKVKITITRVKLPEGAESAGGSAGGSAGG [r17_186_TrROS_Hall]”, the entries for the “folding stability dG unfold” value in series [1], in series [2] and in series [3] were 3.79 ± 0.22 kcal/mol, 3.82 ± 0.25 kcal/mol and 3.01 ± 0.21 kcal/mol, respectively.

Consider “SAGGSAGGSAGLKVIEADTLEEVLEAIKEAPKDEPLLLILRNPSTGVDSVLLFDGDKIVLGGSAGGSAGGSA [r18_407_TrMRF]”, for which the “folding stability dG unfold” value in series [1] amounted to 1.09 ± 0.029 kcal/mol; in series [2] it was 0.909 ± 0.06 kcal/mol; in series [3], 0.595 ± 0.09 kcal/mol.

In the case of “SAGGSAGGSAGLPVLRPLIIPGPSVLRILEVRLREDGSVEVISEETIPLPPPIPSPSELTSAGGSAGGSAGG [r11_843_TrMRF]”, the results for the “folding stability dG unfold” value in series [1], in series [2] and in series [3] were 0.763 ± 0.038 kcal/mol, 0.905 ± 0.13 kcal/mol and 0.994 ± 0.16 kcal/mol, respectively.

For “SAGGSAGGSAGMEEIEIKFPENGKPLEIYRVPDGSAIIRNPGDGHYFQMDGNKIEIVGPLSAGGSAGGSAGG [r17_476_TrROS]”, the “folding stability dG unfold” value turned out to be 0.861 ± 0.048 kcal/mol in series [1], 0.703 ± 0.18 kcal/mol in series [2] and 0.353 ± 0.13 kcal/mol in series [3].

Take “SAGGSAGGSAGMELTLDEIRALLPAEEIEEVEVVEVDGKLVIRVKRKDGKEVRELVIEKDSAGGSAGGSAGG [r17_374_TrROS_Hall]”: the “folding stability dG unfold” value in series [1] is 1.63 ± 0.065 kcal/mol; in series [2], 1.73 ± 0.13 kcal/mol; in series [3] it was 1.67 ± 0.054 kcal/mol.

Take “SAGGSAGGSAGMEPVYLLVKRTNPATGGREEALLAVPAEDLDAVREALEALPGVEEIEEISAGGSAGGSAGG [r17_438_TrMRF]”: the results for the “folding stability dG unfold” value in series [1], in series [2] and in series [3] were 0.283 ± 0.05 kcal/mol, 0.886 ± 0.079 kcal/mol and 1.18 ± 0.079 kcal/mol, respectively.

Take “SAGGSAGGSAGMETPVLYNVTVTPPDGSTTTYTVPEGLSEEEIRALLNVPASDTITFSPVSAGGSAGGSAGG [r11_340_JUSTAS]”: the results for the “folding stability dG unfold” value in series [1], in series [2] and in series [3] were 1.87 ± 0.042 kcal/mol, 1.99 ± 0.033 kcal/mol and 2.02 ± 0.029 kcal/mol, respectively.

In the case of “SAGGSAGGSAGMEVFKSADGKRLLIRAKNGKVAEFDVETGELKFSKENLSPEDIEIVEVPSAGGSAGGSAGG [r17_174_TrROS_Hall]”, the “folding stability dG unfold” value in series [1] stood at 0.385 ± 0.2 kcal/mol; in series [2], 0.72 ± 0.22 kcal/mol; in series [3] it was 1.05 ± 0.14 kcal/mol.

Take “SAGGSAGGSAGMIKKVKISRTSDGTVTRTTEYLETDKPGVPKVVTTEVETVTLAPSEPLFSAGGSAGGSAGG [r11_517_JUSTAS]”: the figures for the “folding stability dG unfold” value in series [1], in series [2] and in series [3] were -1.11 ± 0.51 kcal/mol, 0.507 ± 0.084 kcal/mol and 0.911 ± 0.039 kcal/mol, respectively.

“SAGGSAGGSAGMINPKDVVEVSSSTDPNSSSGTLTVTLKDGKEITISYSSSSEAEAALLGSAGGSAGGSAGG [r11_339_JUSTAS]”: the figures for the “folding stability dG unfold” value in series [1], in series [2] and in series [3] were 1.1 ± 0.061 kcal/mol, 1.44 ± 0.2 kcal/mol and 1.52 ± 0.12 kcal/mol, respectively.

With “SAGGSAGGSAGMIVFTLPDGGLALVLNIEYELEPDEDGNLIIRPRISLSIFPVPADFPILSAGGSAGGSAGG [r17_480_TrMRF]”, the entries for the “folding stability dG unfold” value in series [1], in series [2] and in series [3] were 3.2 ± 0.09 kcal/mol, 4.19 ± 0.12 kcal/mol and 4.51 ± 0.068 kcal/mol, respectively.

On to “SAGGSAGGSAGMIVVKSKEEIEALKKAGYEIEVKEVTVYDPKTGKKKDKFLVIEIKPKKKSAGGSAGGSAGG [r11_168_TrROS_Hall]”, for which the entries for the “folding stability dG unfold” value in series [1], in series [2] and in series [3] were 1.25 ± 0.15 kcal/mol, 1.29 ± 0.17 kcal/mol and 1.28 ± 0.06 kcal/mol, respectively.

With “SAGGSAGGSAGMKITIDGKVAEIEEVEVDGKLYYFIRVEGRLYVFDVETGEIREISPEDLSAGGSAGGSAGG [r11_9_TrROS_Hall]”, the “folding stability dG unfold” value was determined as 3.14 ± 0.074 kcal/mol in series [1], 3.91 ± 0.054 kcal/mol in series [2] and 4.16 ± 0.033 kcal/mol in series [3].
